Laboratory results reported in PMC4358367, “Structural basis of diverse membrane target recognitions by ankyrins” (eLife, 2014).
Where no end group is shown, it is not given here.

Experiments:
[1] = target: T1, AnkB_repeats (24 ANK repeats of human 220 kDa ankyrin-B, residues 28–873) (human, UniProt Q01484 28-873); assay: fluorescence polarisation; FITC-labeled peptide (~1 µM) titrated with AnkB_repeats WT or mutants; 25°C; 50 mM Tris pH 8.0, 100 mM NaCl, 1 mM DTT, 1 mM EDTA; one-site binding model; details: both partners purified
T1 construct: ankyrin-B (AnkB), human, 220 kDa isoform used as template, ANK repeats, residues 28-873; source: E. coli BL21 (DE3), purified
T1 sequence (looked up): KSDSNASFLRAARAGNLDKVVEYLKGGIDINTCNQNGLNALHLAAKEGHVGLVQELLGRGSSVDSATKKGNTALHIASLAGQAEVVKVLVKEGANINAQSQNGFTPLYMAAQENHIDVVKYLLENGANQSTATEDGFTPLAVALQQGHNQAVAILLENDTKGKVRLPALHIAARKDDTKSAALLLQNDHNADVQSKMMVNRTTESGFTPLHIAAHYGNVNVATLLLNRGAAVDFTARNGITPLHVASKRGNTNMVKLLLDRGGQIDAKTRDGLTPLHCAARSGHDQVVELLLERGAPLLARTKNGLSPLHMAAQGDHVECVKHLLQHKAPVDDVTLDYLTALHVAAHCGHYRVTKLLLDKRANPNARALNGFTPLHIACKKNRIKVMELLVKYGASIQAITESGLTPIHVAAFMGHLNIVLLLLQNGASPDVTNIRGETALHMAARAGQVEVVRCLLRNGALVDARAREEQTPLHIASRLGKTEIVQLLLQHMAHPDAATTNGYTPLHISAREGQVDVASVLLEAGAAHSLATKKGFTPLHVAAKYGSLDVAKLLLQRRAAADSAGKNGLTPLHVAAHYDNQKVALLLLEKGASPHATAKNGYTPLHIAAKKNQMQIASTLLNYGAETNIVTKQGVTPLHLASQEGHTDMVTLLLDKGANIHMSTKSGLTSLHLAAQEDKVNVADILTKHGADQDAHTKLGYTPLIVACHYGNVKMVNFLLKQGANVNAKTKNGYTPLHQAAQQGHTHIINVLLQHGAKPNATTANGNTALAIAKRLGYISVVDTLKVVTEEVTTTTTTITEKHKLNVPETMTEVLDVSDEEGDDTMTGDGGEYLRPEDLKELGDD

[2] = target: T2, AnkB_repeats site 3 mutant 'LFL' (Leu366, Phe399 and Leu432 to Gln) (human, UniProt Q01484 28-873, Leu366 substituted with Gln | Phe399 substituted with Gln | Leu432 substituted …); assay: FP
T2 sequence: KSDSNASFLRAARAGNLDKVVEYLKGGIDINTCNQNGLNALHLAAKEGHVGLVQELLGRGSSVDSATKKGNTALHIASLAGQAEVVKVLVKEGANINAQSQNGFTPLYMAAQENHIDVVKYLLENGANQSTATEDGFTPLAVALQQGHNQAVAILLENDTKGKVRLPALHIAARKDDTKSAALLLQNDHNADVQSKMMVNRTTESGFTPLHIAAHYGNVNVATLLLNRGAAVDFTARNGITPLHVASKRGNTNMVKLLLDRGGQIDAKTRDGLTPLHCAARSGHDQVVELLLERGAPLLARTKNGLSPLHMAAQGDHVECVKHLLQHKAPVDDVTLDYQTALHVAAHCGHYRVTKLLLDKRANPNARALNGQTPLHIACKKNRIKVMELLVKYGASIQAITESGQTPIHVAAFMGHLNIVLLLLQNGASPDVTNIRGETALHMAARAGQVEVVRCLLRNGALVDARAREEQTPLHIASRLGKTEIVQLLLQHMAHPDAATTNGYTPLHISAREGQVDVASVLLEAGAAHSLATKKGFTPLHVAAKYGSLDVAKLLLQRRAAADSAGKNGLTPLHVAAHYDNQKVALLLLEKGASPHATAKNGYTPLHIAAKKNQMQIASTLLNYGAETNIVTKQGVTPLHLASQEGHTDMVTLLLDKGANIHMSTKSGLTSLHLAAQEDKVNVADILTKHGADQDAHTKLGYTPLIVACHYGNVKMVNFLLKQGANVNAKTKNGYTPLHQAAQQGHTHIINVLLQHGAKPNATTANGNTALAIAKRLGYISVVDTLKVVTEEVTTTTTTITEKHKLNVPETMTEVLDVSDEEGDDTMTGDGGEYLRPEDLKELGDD

[3] = target: T3, AnkB_repeats (24 ANK repeats of human 220 kDa ankyrin-B, residues 28–873) (human, UniProt Q01484 28-873); assay: FP
T3 chain: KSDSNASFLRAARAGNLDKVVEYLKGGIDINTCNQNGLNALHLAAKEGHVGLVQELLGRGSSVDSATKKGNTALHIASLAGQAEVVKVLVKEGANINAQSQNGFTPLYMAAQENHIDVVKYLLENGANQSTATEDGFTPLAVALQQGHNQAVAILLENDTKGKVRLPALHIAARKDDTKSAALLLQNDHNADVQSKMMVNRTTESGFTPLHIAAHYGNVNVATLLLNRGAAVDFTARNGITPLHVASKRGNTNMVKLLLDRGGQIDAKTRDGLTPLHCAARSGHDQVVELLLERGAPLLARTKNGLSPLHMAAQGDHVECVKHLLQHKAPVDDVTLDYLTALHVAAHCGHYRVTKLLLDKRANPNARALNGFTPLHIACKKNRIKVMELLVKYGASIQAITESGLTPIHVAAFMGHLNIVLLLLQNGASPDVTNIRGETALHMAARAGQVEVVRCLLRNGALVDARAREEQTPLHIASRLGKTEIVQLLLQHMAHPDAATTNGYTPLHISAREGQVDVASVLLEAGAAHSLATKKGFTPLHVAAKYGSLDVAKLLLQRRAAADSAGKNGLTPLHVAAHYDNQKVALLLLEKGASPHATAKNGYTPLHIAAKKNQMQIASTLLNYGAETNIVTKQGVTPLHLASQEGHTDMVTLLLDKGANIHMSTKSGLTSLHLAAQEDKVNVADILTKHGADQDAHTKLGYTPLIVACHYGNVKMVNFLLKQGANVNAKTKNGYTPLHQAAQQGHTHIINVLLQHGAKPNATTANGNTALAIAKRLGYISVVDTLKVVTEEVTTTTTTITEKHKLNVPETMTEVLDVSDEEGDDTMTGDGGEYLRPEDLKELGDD

[4] = target: T4, AnkB_repeats site 2 mutant 'IL' (Ile267 and Leu300 to Gln) (human, UniProt Q01484 28-873, Ile267 substituted with Gln | Leu300 substituted with Gln); assay: FP
T4 sequence: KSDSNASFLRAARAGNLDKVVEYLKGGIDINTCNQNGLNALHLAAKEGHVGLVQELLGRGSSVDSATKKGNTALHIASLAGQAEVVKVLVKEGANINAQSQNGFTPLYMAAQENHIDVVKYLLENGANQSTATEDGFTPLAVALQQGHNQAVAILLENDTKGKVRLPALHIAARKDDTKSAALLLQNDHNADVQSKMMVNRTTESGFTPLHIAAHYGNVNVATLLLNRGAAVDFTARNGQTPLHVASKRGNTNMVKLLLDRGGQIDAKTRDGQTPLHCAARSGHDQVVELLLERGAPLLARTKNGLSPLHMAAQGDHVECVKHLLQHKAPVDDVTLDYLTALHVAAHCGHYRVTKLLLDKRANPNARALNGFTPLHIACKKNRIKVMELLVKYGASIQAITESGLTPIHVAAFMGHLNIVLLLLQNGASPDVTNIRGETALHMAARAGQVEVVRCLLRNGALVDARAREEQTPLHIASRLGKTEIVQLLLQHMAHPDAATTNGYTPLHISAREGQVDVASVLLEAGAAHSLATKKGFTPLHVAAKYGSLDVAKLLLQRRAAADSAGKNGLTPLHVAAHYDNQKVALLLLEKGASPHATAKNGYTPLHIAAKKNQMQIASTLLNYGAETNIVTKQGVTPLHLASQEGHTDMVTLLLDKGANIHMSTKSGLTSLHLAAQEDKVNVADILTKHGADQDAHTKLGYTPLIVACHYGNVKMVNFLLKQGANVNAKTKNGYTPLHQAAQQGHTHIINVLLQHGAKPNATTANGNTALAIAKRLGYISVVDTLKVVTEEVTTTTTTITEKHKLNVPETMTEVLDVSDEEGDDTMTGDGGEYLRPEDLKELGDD

B1: Cav1.3 peptide (mouse Cav1.3 residues 2134–2166), FITC-labeled (peptide, UniProt Q99246-4 2134-2166, looked up)
peptide: ELQDFGPGYSDEEPDPGREEEDLADEMICITTL
modifications: also: FITC label (position not given here)
notes: voltage-gated calcium channel Cav1.3, mouse, residues 2134-2166; also called voltage-gated calcium channel Cav1.3 peptide; source: synthetic peptide (commercially synthesized)
binding result [1]: binds | Kd [2]: 4 µM | Kd [3]: 3.3 µM | Kd [4]: 8.2 µM
